pKd: −log10 of the molar value.
Columns and labels:
Protein A [1] = target: Protein A (UniProt P02976); assay: EIS; settings: apparent; 2 mM ferri-/ferrocyanide; Hill h 1.14 +/- 0.15; 3' C6 spacer and thiol; immobilized on gold with MCH; BB: 100 mM NaCl, 20 mM Tris, 10 mM MgCl2, 5 mM KCl, 1 mM CaCl2, pH 7.6; MST in BBT (0.005% Tween 20) at 25 C, 2bind MST with 0.05% Tween 20; EIS in BB + 2 mM …
[2] = target: Protein A (cited studies) (UniProt P02976); assay: SPR; settings: BB: 100 mM NaCl, 20 mM Tris, 10 mM MgCl2, 5 mM KCl, 1 mM CaCl2, pH 7.6, MST in BBT (0.005% Tween 20) at 25 C, 2bind MST with 0.05% Tween 20, EIS in BB + 2 mM …, cited from earlier work
[3] = target: Protein A (cited studies) (UniProt P02976); assay: ELONA; settings: BB: 100 mM NaCl, 20 mM Tris, 10 mM MgCl2, 5 mM KCl, 1 mM CaCl2, pH 7.6; MST in BBT (0.005% Tween 20) at 25 C, 2bind MST with 0.05% Tween 20; EIS in BB + 2 mM …; cited from earlier work
Protein A [4] = target: Protein A (UniProt P02976); assay: MST; settings: BB: 100 mM NaCl, 20 mM Tris, 10 mM MgCl2, 5 mM KCl, 1 mM CaCl2, pH 7.6, MST in BBT (0.005% Tween 20) at 25 C, 2bind MST with 0.05% Tween 20, EIS in BB + 2 mM …
[5] = target: Protein A (cited studies) (UniProt P02976); assay: MST; settings: 5' thiol; BB: 100 mM NaCl, 20 mM Tris, 10 mM MgCl2, 5 mM KCl, 1 mM CaCl2, pH 7.6; MST in BBT (0.005% Tween 20) at 25 C, 2bind MST with 0.05% Tween 20; EIS in BB + 2 mM …; cited from earlier work
[6] = target: Protein A (cited studies) (UniProt P02976); assay: RIFTS; settings: aptamer immobilized on porous silicon, h 2.61 +/- 0.69, 3' amino, BB: 100 mM NaCl, 20 mM Tris, 10 mM MgCl2, 5 mM KCl, 1 mM CaCl2, pH 7.6, MST in BBT (0.005% Tween 20) at 25 C, 2bind MST with 0.05% Tween 20, EIS in BB + 2 mM …; cited from earlier work

ATACCAGCTTATTCAATTAGCAACATGAGGGGGATAGAGGGGGTGGGTTCTCTCGGCT [PAA (PA#2/8[S1-58]), 3'-thiol on gold]
pKd (Protein A [1]): 7.73

ATACCAGCTTATTCAATTAGCAACATGAGGGGGATAGAGGGGGTGGGTTCTCTCGGCT [PAA, 3'-biotin]
pKd [2]: 6.54 | pKd [3]: 7.95

ATACCAGCTTATTCAATTAGCAACATGAGGGGGATAGAGGGGGTGGGTTCTCTCGGCT [PAA, 3'-fluorescent]
pKd (Protein A [4]; BB + 0.05% Tween 20 (2bind), 3' C6 spacer, thiol): 6.96 | pKd (Protein A [4]; BBT + 2 mM ferri-/ferrocyanide, 3' C6 spacer, thiol): 7.79 | pKd (Protein A [4]; BBT, 0.005% Tween 20, no ferri-/ferrocyanide, 3' C6 spacer, thiol): 7.65

ATACCAGCTTATTCAATTAGCAACATGAGGGGGATAGAGGGGGTGGGTTCTCTCGGCT [PAA, 5'-biotin]
pKd [3]: 7.63

ATACCAGCTTATTCAATTAGCAACATGAGGGGGATAGAGGGGGTGGGTTCTCTCGGCT [PAA, 5'-fluorescent]
pKd ([2]; 5' thiol): 5.72 | pKd (Protein A [4]; BB + 0.05% Tween 20 (2bind), 5' thiol): 6.94 | pKd [5]: 7.02

ATACCAGCTTATTCAATTAGCAACATGAGGGGGATAGAGGGGGTGGGTTCTCTCGGCT [PAA, 3'-amino]
pKd [6]: 4.85

— publication PMC5713450
